3 molecules from patent publication US20120201811A1 (US Dept. of Health and Human Services, published 2012) can be followed below.

Series [1] addresses T1, HIV-1 Rev (clone BH10) (HIV-1 (isolate BH10), UniProt P04616 1-116).
T1 sequence: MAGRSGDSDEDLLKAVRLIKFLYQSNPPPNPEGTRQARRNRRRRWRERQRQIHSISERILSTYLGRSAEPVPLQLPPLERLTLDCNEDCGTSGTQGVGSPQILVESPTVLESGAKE

In series [2] the target is T1, HIV-1 Rev (clone BH10). The series is described as follows: densitometry of Coomassie-stained SDS-PAGE of the Ni-purified complex.
Series [3] addresses T1, HIV-1 Rev (clone BH10). Description: SPR (Biacore X), Rev immobilized on CM5 chip, Fab as analyte, Kd=kd/ka. Background: In SPR one partner is held on a chip, and binding of the other changes the refractive index at the surface.
For series [4], the target named is T1, HIV-1 Rev (clone BH10). The series is described as follows: SPR (Biacore X), Rev immobilized on CM5 chip, Fab as analyte, 1:1 Langmuir global fit.
Series [5] concerns the molecule itself. The series is described as follows: sedimentation equilibrium ultracentrifugation, gradient fitted as a monomer-dimer system (self-association of the Fab/Rev complex); self-association of the 1:1 Fab/Rev complex, monomer-dimer fit of sedimentation equilibrium.

Read-outs that look alike come from different tables or passages of the source.

B1: Fab SJS-R1 (chimeric rabbit/human anti-Rev Fab) (Fab, V domains shown)
VH: QEQLVESGGRLVTPGTALTLTCKVSGFSLSGFWLNWVRQAPGKGLEWVGAIYRGSGSEWYASWAKGRFTISDTSTTVTLKLTSPTTEDTATYFCAADTTDNGYFTIWGPGTLVTVSS
VL: ELVMTQTPSSVSEPVGGTVTIKCQASQSISSWLSWYQQKPGQPPKLLIYDASNLASGVPSRFMGSGSGTEYTLTISGVQREDAATYYCLGGYPAASYRTAFGGGTELEIIR
notes: also called SJS-R1 Fab; Rev Fab SJS-R1
For the molecule B1, in the series with HIV-1 Rev (clone BH10) [1], the koff – broadly, the first-order rate constant of dissociation – is 8.3e-06 s⁻¹ and the kon – broadly, the rate constant with which the complex forms – was 228000 M⁻¹ s⁻¹. Moreover, the “molar ratio in the purified complex” value in the series with HIV-1 Rev (clone BH10) [2] came to 0.9 mol Rev per mol Fab. In addition, the Kd (in general, the equilibrium constant for the complex coming apart) with HIV-1 Rev (clone BH10) [3] was roughly 0.04 nM. In the series with HIV-1 Rev (clone BH10) [4], the koff worked out at 8e-06 s⁻¹ and the kon came to 220000 M⁻¹ s⁻¹.

B2: scFv SJS-R1 (mature SJS-R1 scFv) (scFv)
scFv: AELVMTQTPSSVSEPVGGTVTIKCQASQSISSWLSWYQQKPGQPPKLLIYDASNLASGVPSRFMGSGSGTEYTLTISGVQREDAATYYCLGGYPAASYRTAFGGGTELEIIGGSSRSSSSGGGGSGGGGQEQLVESGGRLVTPGTALTLTCKVSGFSLSGFWLNWVRQAPGKGLEWVGAIYRGSGSEWYASWAKGRFTISDTSTTVTLKLTSPTTEDTATYFCAADTTDNGYFTIWGPGTLVTVSSHHHHHH
notes: also called anti-Rev scFv; Rev scFv
Consider B2, for which the “molar ratio in the purified complex” value in the series with HIV-1 Rev (clone BH10) [2] amounted to 0.87 mol Rev per mol scFv.

B3: Fab/Rev complex (1:1 complex of Fab SJS-R1 and HIV-1 Rev) (other)
light: ELVMTQTPSSVSEPVGGTVTIKCQASQSISSWLSWYQQKPGQPPKLLIYDASNLASGVPSRFMGSGSGTEYTLTISGVQREDAATYYCLGGYPAASYRTAFGGGTELEIIRTVAAPSVFIFPPSDEQLKSGTASVVCLLNNFYPREAKVQWKVDNALQSGNSQESVTEQDSKDSTYSLSSTLTLSKADYEKHKVYACEVTHQGLSSPVTKSFNRGEC
heavy: QEQLVESGGRLVTPGTALTLTCKVSGFSLSGFWLNWVRQAPGKGLEWVGAIYRGSGSEWYASWAKGRFTISDTSTTVTLKLTSPTTEDTATYFCAADTTDNGYFTIWGPGTLVTVSSASTKGPSVFPLAPSAKSTSGGTAALGCLVKDYFPEPVTVSWNSGALTSGVHTFPAVLQSSGLYSLSSVVTVPSSSLGTQTYICNVNHKPSNTKVDKKAEPKSCDKTRGHHHHHH
chain: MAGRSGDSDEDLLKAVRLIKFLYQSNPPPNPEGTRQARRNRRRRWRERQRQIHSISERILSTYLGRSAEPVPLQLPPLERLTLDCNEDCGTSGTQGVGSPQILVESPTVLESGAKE
notes: mature; also called Fab/Rev immune complex
In series [5], B3 came in with a Kd of roughly 100 µM.
